Results reported in article PMC11667159 (The Journal of Biological Chemistry, 2024).
Changes are numbered by the printed parent chain. Names and notes keep the numbering of the source. One block for each binder: values may come before it.

Legend:
[1] = biological target: dimeric S100B (human, recombinant) (Homo sapiens, UniProt P04271)
[2] = biological target: anti-S100B nanobody Nb12 (llama); test: BLI; Nbs (20 μg/ml) loaded on Ni-NTA biosensor; S100B dimer or tetramer 25-250 nM in solution; 25 °C; 50 mM Tris-HCl pH 7.4, 150 mM NaCl; global 1:1 fit
[3] = biological target: T1, VC1 domain of human RAGE (receptor for advanced glycation end products), biotinylated (human, UniProt Q15109 23-226, biotin (EZ-Link Sulfo-NHS-Biotin)); test: BLI; in the presence of twofold excess Nb1
T1 chain: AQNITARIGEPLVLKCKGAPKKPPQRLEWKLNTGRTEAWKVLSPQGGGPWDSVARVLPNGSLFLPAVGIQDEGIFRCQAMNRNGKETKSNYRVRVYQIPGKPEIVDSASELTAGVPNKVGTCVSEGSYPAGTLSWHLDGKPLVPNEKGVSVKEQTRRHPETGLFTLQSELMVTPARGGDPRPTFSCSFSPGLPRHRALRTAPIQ

[4] = biological target: T1, VC1 domain of human RAGE (receptor for …); test: BLI; in the presence of twofold excess Nb18
[5] = biological target: T2, VC1 domain of human RAGE (receptor for advanced glycation end products), biotinylated (human, UniProt Q15109 23-226, biotin (EZ-Link Sulfo-NHS-Biotin)); test: BLI; biotinylated RAGE-VC1 (25 μg/ml) loaded on streptavidin biosensor; S100B tetramer 50-750 nM in solution (controls: Nbs alone); 25 °C; PBS, 0.1% BSA, 0.05% Tween-20, 1.1 mM CaCl2; global 1:1 fit; conditions: both partners purified
T2 construct: RAGE, human, V and C1 immunoglobulin-like domains; also called RAGE-VC1; VC1 RAGE; source: E. coli Rosetta-gami B (DE3), purified

[6] = biological target: T2, VC1 domain of human RAGE (receptor for …); test: BLI; competition: biotinylated RAGE-VC1 on streptavidin biosensor; S100B tetramer 50-750 nM previously incubated with a twofold excess of Nb; 25 °C; PBS, 0.1% BSA, 0.05% Tween-20, 1.1 mM CaCl2; global 1:1 fit; conditions: both partners purified
[7] = biological target: tetrameric S100B (human, recombinant) (human, UniProt P04271)

Sequence of anti-S100B nanobody Nb12 (llama) (heavy, as listed by the source): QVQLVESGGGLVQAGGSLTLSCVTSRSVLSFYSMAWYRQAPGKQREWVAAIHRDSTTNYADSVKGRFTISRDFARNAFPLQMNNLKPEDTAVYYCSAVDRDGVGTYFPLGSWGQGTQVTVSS

binding result [1]: binds
B1: Nb22 (VHH)
VHH: QVQLVESGGGLVQPGGSLRLSCAASGTSFSTNVMGWYRQAPGKQRELVARILGGSSTYYADSVKGRFTISRDNDKNTLYLQMNSLKPEDTAVYYCTAGFGPGYWGQGTQVTVSS

Kd [3]: 89 nM
Kd [4]: 70 nM
Kd [2]: 800 nM
Kd [5]: ~29 nM
fold increase of KD after incubation with Nb1, against S100B-4mer alone [6]: 3 fold
fold increase of KD after incubation with Nb18, against S100B-4mer alone [6]: 2.4 fold
B5: tetrameric S100B (human, recombinant) (natural protein)
chain: MSELEKAMVALIDVFHQYSGREGDKHKLKKSELKELINNELSHFLEEIKEQEVVDKVMETLDNDGDGECDFQEFMAFVAMVTTACHEFFEHE
notes: S100B, human, isolated as the tetramer (association of two homodimers); also called S100B-4mer; S100B tetramer; source: E. coli (BL21(DE3) E. Cloni EXPRESS), purified

binding result [7]: binds
B8: Nb11 (VHH)
VHH: QVQLVESGGGLVQAGGSLRLSCAASASIGIFTVRWWRQAPGKQRALEQRELVAGISGGGTTNFADSVKGRFTISRDNDKKMVYLEMNNLKPEDTAVYYCNYLNSWGQGTQVTVSS

binding result [7]: binds
B9: Nb6 (VHH)
VHH: QVQLVESGGGLVQAGGSLRLSCAASGNILRLNAMAWYRQAPGKQRELVAYITYKGPTNYAESVKGRFTISRDMAKNTVYLQMNSLKPEDTAAYYCNADYIRTPGPFWGQGTQVTVSS

binding result [7]: binds
B10: Nb7 (VHH)
VHH: B9 VHH with Y50D, I51N, Y53F, E61D, P105H

binding result [1]: binds
B19: Nb25 (VHH)
VHH: QVQLVESGGGLVQPGGSLRLSCTVSGIILGSRAMGWYRQTPGKQREFVATISTSGGTTNYADSVKGRFTISRDNAKNTVYLQMNSLKPEDTAIYYCNTLSQVLADRGWGQGTQVTVSS

binding result [1]: binds
B20: Nb26 (VHH)
VHH: B19 VHH with Q13R, I28M, L29F, E46D, N74S, I93V, L99V, Q101A, A104L

binding result [1]: binds
B21: Nb28 (VHH)
VHH: QVQLVESGGGLVQTGGSLNLSCAPFGTVLSDNDVGWYRQAPGSQRELVAEVDVRGGTNYADSVKGRFTISRDSAKKITFLQMNSLKSEDTAVYYCASDYGLGLLVGLPEYRGQGTQVTVSS

binding result [7]: binds
B22: Nb2 (VHH)
VHH: QVQLVESGGGWVQAGGSLRLSCTASGSGFGIFAINWFRQAPGKERELVASLSSIGSPKYAESVKGRFTISRDNAKNTVYLQMNSLKPEDTAVYYCNYLNRWGQGTQVTVSS

binding result [1]: binds
B27: Nb27 (VHH)
VHH: QVQLVESGGGLVQAGGSLKLSCAAPGWTVSISYMGWFRQAQGKEREFVGAMSWSDDRISYADSVKGRFTISRDNAKTTVFLQMTSLKPEDTAVYYCAVRRKWSESYDYWGQGTQVTVSS

Further lines, the binder ahead of its results:

B2: Nb23 (VHH)
VHH: B1 VHH with I51M, D74A, L78V, T96A
binding result [1]: binds

B3: Nb20 (VHH)
VHH: QVQLVESGGGLVQAGASLRLSCAASGRTFSSNYMGWFRQAPGKEREFVGAISWTSGSTSYADSVKGRFTISRDKAKNTVDLQMNSLNPDDTAVYYCAAGPSHRLWFSGRTLATYYDYWGQGTQVTVSS
binding result [1]: binds

B4: dimeric S100B (human, recombinant) (natural protein)
chain: B5 chain
Kd [2]: 4000 nM

B6: Nb9 (VHH)
VHH: QVQLVESGGGLVQAGESLRLSCAASGAVFRIFAVNWWRQAPGKQRELVATITSAGDTKYHDSVKGRFTISRDNAKNTVALQMNNLKPEDTAVYQCNVLKYWGQGTQVTVSS
binding result [7]: binds

B7: Nb10 (VHH)
VHH: B6 VHH with N73I
binding result [7]: binds

B11: Nb16 (VHH)
VHH: QVQLVESGGGLVQAGGSLRLSCAASGRTVSSKAMGWYRQAPGKQRELVASISTSGSTTVYADSVKGRFTISRDNAKATVYLRMNMLKPEDTAVYYCNYLVGPIDWGQGTQVTVSS
binding result [1]: binds

B12: Nb17 (VHH)
VHH: B11 VHH with V59N, K76E, T78P, R82Q, E89G, I103A
binding result [1]: binds

B13: Nb14 (VHH)
VHH: QVQLVESGGGLVQAGDSLRLSCAASARTFSIHAMGWFRQAPGKEREFVAAIGWTGGSPDYSDSAKGRFAISRDNAKNTVFLQMNSLKPEDTAVYYCAFHRAGSYDSTTSYDYWGQGTQVTVSS
binding result [1]: binds

B14: Nb8 (VHH)
VHH: QVQLVESGGGLVQAGGSLRLACVTSGNIFSISFMRWYRQAPGKQRELVATITSGDRTTYADSVKGRFTISRDNAKNTVYLQMNSLEPEDTAVYYCDINGLRYAGIRSWGQGTQVTVSS
binding result [7]: binds

B15: Nb24 (VHH)
VHH: QVQLVESGGGLVQDGGSLRLSCAASGLTFSSLPMGWFRQAPGKEREFVAAMNWGEISTYYADSVKGRFTISRDNGKKTVYLQMNSLKPEDTAVYTCAADLRYSNLKYSRAGYWGQGTQVTVSS
binding result [1]: binds

B16: Nb15 (VHH)
VHH: QVQLVESGGGLVQAGGSLRLSCVASGILFSNNPMAWYRGAPGKQRELVARIWSGGRTIYGDSLKGRVTISRDNAKNTVYLQMNSLQPEDTAVYYCNSPYTNGWGQGTQVTVSS
binding result [1]: binds

B17: Nb19 (VHH)
VHH: QVQLVESGGGLVQAGGSLRLSCAASGRTFSSYKMGWFRQAPGKEREFVAAFSWTGLNTNYADSVKGRFTISRDNAKSTVYLQMNSLKPEDTAVYYCAAGLGRTVIAGVDYWGQGTQVTVSS
binding result [1]: binds

B18: Nb21 (VHH)
VHH: QVQLVESGGGLVQAGDSLRLSCAASGRTFSNYGIGWFRQAPGKEREFVARVAWSTAITKYADAVKGRFTISRDNAKNMVYLQMNSLKPEDTAVYYCAAGKYGTAWITISGYDFWGQGTQVTVSS
binding result [1]: binds

B23: Nb13 (VHH)
VHH: QVQLVESGGGLVQPGGSLMLSCAASGFDFATYPMSWVRQAPGKEPEWIASIFPNGVTQSCADSVLGRFTISRDNTKNTLFLEMDRLKLADTAVYYCSKGGAAQSMFDDYWGQGTQVTVSS
binding result [7]: binds

B24: Nb5 (VHH)
VHH: QVQLVESGGGLVQAGGSQRLSCTASGRIFSINDMGWYRQAPGDQRELVAVITSGGATNYTDSVKGRFTISRDDAKNTVYLQMNSLKPEDTAVYYCNADLRTSLKWPPVFHRYWGQGTQVTVSS
binding result [7]: binds

B25: Nb3 (VHH)
VHH: QVQLVESGGGLVQAGRSLRLSCAASGRSFSIFAVNWWRQAPGNQRELVASITGGGSIRYADSVKGRFTISRDNAENTVYLQMNSLKPEDTAVYYCNTLNFWGQGTQVTVSS
binding result [7]: binds

B26: Nb4 (VHH)
VHH: B25 VHH with A33G, W37F, G42E, K64T, T97I
binding result [7]: binds
